Experiments:
[1] = target: T1, Ad5FDgT fiber (Human Adenovirus 5 fiber with DogTag inserted at the HI loop domain of the fiber knob) (Human Adenovirus 5); assay: covalent DogCatcher/DogTag conjugation to the virus capsid
T1 chain: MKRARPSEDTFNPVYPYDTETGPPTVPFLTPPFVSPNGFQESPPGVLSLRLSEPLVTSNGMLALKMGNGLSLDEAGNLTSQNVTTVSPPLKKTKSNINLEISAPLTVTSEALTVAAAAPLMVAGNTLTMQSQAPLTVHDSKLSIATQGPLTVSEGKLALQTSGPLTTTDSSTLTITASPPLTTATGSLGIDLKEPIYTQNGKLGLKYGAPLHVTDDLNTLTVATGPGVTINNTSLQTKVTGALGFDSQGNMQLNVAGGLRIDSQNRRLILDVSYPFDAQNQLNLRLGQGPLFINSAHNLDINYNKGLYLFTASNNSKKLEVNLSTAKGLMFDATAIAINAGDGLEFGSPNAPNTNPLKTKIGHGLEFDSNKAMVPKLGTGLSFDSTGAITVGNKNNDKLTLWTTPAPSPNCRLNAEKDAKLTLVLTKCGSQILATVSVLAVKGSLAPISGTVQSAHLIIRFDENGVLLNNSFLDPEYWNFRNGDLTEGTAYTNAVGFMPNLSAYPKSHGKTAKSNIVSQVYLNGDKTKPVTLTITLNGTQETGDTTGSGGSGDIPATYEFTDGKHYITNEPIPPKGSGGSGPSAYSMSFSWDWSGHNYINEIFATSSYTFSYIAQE

[2] = target: T2, murine CD19 (mouse, UniProt P25918 19-547); assay: cell-based or functional assay
T2 sequence: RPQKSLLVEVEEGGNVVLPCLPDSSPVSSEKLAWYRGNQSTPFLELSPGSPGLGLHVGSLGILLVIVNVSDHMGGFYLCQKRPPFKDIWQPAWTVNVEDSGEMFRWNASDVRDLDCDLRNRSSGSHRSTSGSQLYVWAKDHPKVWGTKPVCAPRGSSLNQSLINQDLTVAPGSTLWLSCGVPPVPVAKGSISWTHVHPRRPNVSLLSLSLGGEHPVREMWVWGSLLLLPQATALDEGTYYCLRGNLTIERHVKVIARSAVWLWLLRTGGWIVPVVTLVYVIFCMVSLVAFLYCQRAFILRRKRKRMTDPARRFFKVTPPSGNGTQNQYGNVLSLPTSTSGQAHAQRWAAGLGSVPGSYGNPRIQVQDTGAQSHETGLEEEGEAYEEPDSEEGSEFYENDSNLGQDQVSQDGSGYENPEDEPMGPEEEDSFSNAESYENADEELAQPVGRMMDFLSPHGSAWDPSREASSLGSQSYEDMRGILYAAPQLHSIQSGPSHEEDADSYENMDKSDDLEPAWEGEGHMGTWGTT

[3] = target: T3, murine CD8a (mouse, UniProt P01731 28-247); assay: flow cytometry on murine splenocytes, gated on CD8+, detected with anti-His Tag antibody
T3 construct: whole, on cells; also called mCD8a; mCD8
T3 sequence (P01731 28-247): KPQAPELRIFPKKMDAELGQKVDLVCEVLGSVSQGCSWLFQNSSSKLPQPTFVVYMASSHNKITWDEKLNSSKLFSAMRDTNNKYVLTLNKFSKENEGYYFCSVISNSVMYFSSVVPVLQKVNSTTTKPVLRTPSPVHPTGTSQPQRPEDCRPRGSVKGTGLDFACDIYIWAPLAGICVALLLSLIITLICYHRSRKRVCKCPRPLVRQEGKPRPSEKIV

[4] = target: T1, Ad5FDgT fiber (Human Adenovirus 5 fiber …); assay: SDS-PAGE gel shift of the fiber band after co-incubation at room temperature
[5] = target: T1, Ad5FDgT fiber (Human Adenovirus 5 fiber …); assay: SDS-PAGE (complete shift of the fiber-DogTag band) and western blot against the fiber tail, purified Ad-Ab complexes
[6] = target: T3, murine CD8a; assay: cell-based or functional assay

B1: FMC63 scFv-DogCatcher fusion (anti-human CD19; IL-2 signal sequence-FMC63 scFv-(G4S)3-DgC-6xHis) (scFv)
scFv: DIQMTQTTSSLSASLGDRVTISCRASQDISKYLNWYQQKPDGTVKLLIYHTSRLHSGVPSRFSGSGSGTDYSLTISNLEQEDIATYFCQQGNTLPYTFGGGTKLEITGGGGSGGGGSGGGGSEVKLQESGPGLVAPSQSLSVTCTVSGVSLPDYGVSWIRQPPRKGLEWLGVIWGSETTYYNSALKSRLTIIKDNSKSQVFLKMNSLQTDDTAIYYCAKHYYYGGSYAMDYWGQGTSVTVSSGGGGSGGGGSGGGGSAMKLGEIEFIKVDKTDKKPLRGAVFSLQKQHPDYPDIYGAIDQNGTYQDVRTGEDGKLTFTNLSDGKYRLIENSEPPGYKPVQNKPIVSFRIVDGEVRDVTSIVPQGSSGSHHHHHH
notes: also called FMC163DgC (plasmid name as printed)
binding result [1]: binds

B2: 18B12DgC (18B12 anti-murine CD20 scFv fused to DogCatcher; IL-2 signal sequence-18B12 scFV-(G4S)3-DgC-6xHis) (scFv)
scFv: QVQLQQPGAELVRPGTSVKLSCKASGYTFTSYWMHWIKQRPGQGLEWIGVIDPSDNYTKYNQKFKGKATLTVDTSSSTAYMQLSSLTSEDSAVYFCAREGYYGSSPWFAYWGQGTLVTVSSGGGGSGGGGSGGGGSQIVMSQSPAILSASPGEKVTMTCRARSSVSYIHWYQQKPGSSPKPWIYATSNLASGVPGRFSGSGSGTSYSLTITRVEAEDAATYYCQQWSSKPPTFGGGTKLEIKGGGGSGGGGSGGGGSAMKLGEIEFIKVDKTDKKPLRGAVFSLQKQHPDYPDIYGAIDQNGTYQDVRTGEDGKLTFTNLSDGKYRLIENSEPPGYKPVQNKPIVSFRIVDGEVRDVTSIVPQGSSGSHHHHHH
notes: also called 18B12 scFv-DogCatcher
binding result [1]: binds

B3: 1D3DgC (1D3 anti-murine CD19 scFv fused to DogCatcher; IL-2 signal sequence-1D3 scFv-(G4S)3-DgC-6xHis) (scFv)
scFv: DIQMTQSPASLSTSLGETVTIQCQASEDIYSGLAWYQQKPGKSPQLLIYGASDLQDGVPSRFSGSGSGTQYSLKITSMQTEDEGVYFCQQGLTYPRTFGGGTKLELKGGGGSGGGGSGGGGSEVQLQQSGAELVRPGTSVKLSCKVSGDTITFYYMHFVKQRPGQGLEWIGRIDPEDESTKYSEKFKNKATLTADTSSNTAYLKLSSLTSEDTATYFCIYGGYYFDYWGQGVMVTVSSGGGGSGGGGSGGGGSAMKLGEIEFIKVDKTDKKPLRGAVFSLQKQHPDYPDIYGAIDQNGTYQDVRTGEDGKLTFTNLSDGKYRLIENSEPPGYKPVQNKPIVSFRIVDGEVRDVTSIVPQGSSGSHHHHHH
notes: also called lD3DgC; 1D3 scFv-DogCatcher
gene expression in B cells in vivo, against the parent vector [2]: ~2 fold
binding result [1]: binds

B4: 2.43DgC (2.43 scFv fused to DogCatcher; IGHV1-46 signal sequence-2.43 scFv-(G4S)3-DgC-6xHis) (scFv)
scFv: EVQLVESGGGLVQPGRSLKLSCAASGFTFSNYYMAWVRQAPTKGLEWVAYINTGGGTTYYRDSVKGRFTISRDDAKSTLYLQMDSLRSEDTATYYCTTAIGYYFDYWGQGVMVTVSSGGGGSGGGGSGGGGSDIQLTQSPASLSASLGETVSIECLASEDIYSYLAWYQQKPGKSPQVLIYAANRLQDGVPSRFSGSGSGTQYSLKISGMQPEDEGDYFCLQGSKFPYTFGAGTKLELKGGGGSGGGGSGGGGSAMKLGEIEFIKVDKTDKKPLRGAVFSLQKQHPDYPDIYGAIDQNGTYQDVRTGEDGKLTFTNLSDGKYRLIENSEPPGYKPVQNKPIVSFRIVDGEVRDVTSIVPQGSSGSHHHHHH
notes: also called 2.43 scFv-DogCatcher
binding result [3]: binds

B5: DogCatcher (bacterially produced, 6xHis-TEV-DogCatcher) (other)
chain: MSYYHHHHHHDYDIPTTENLYFQGAMKLGEIEFIKVDKTDKKPLRGAVFSLQKQHPDYPDIYGAIDQNGTYQDVRTGEDGKLTFTNLSDGKYRLIENSEPPGYKPVQNKPIVSFRIVDGEVRDVTSIVPQ
notes: also called DgC; pDEST14-DogCatcher product
binding result [4]: binds

B6: YTS169DgC (YTS169 anti-murine CD8a scFv fused to DogCatcher; IGHV1-46 signal sequence-YTS169 scFv-(G4S)3-DgC-6xHis) (scFv)
scFv: EVKLQESGGGLVQPGRSLKLSCAASGFNFNDYWMGWVRQAPGKGLEWIGEINKDSSTINYTPSLKDKFTISRDNAQNTLYLQMSKLGSEDTAIYYCARARGMMVLIIPHYFDYWGQGVMVTVSSGGGGSGGGGSGGGGSDIVLTQSPAMAMSPGERITISCRASESVSTRMHWYQQKPGQQPKLLIYGASNLESGVPARFSGSGSGTDFTLTIDPVEANDTATYFCQQSWYDPWTFGGGTKLELKGGGGSGGGGSGGGGSAMKLGEIEFIKVDKTDKKPLRGAVFSLQKQHPDYPDIYGAIDQNGTYQDVRTGEDGKLTFTNLSDGKYRLIENSEPPGYKPVQNKPIVSFRIVDGEVRDVTSIVPQGSSGSHHHHHH
notes: also called YTS169 scFv-DogCatcher; anti-mCD8 YTS169
binding result [5]: binds
gene expression in CD8a+ T cells in vivo [6]: ~2 fold
